Measurements taken from US20220235356.

These sequences were tested against KRAS G12D (GMPPNP-loaded) G12D (Homo sapiens) (UniProt P01116) (assay: inhibition). Conditions: Raf-1 binding remaining vs no aptamer, average of four aptamers at 5x KRAS; PBS, 37 C, ELISA.

activity, 50%:
NCATANNNNNCGGTACGTCCGNNTATGNGTGGGNGGTAAGGGAGACCNCNTGACTAGTACANNNCCACN [NBK2-1]
NNNNNNNNGATCATGNNCCGGGTTCGGNTGGGGGGNNNNNNCATGATCTACTTGACTAGTNNN [NBK1-1]
NNNNNNNNNNNNGGNCATNNGATCATGNNCCGGGTTCGGNTGGGGGGNNNNNNCATGATCTACTTGACTAGTANATGNCCNNNNNN [NBK1]
NNNNNNNNNNNNNNNCATANNNNNCGGTACGTCCGNNTATGNGTGGGNGGTAAGGGAGACCNCNTGACTAGTACANNNCCACNNNN [NBK2]
